Our source for the Kd values is PMC4094350.

Like-named read-outs stand apart in the source and are kept apart here.

Experiment [1] has as its target GFP-Paxillin (UniProt P49023). In words: FRET or BRET. Background: Bioluminescence resonance energy transfer reports proximity on the nanometre scale.
For experiment [2], the target named is GFP-Paxillin (UniProt P49023). In words: FRET or BRET. This is another data set of the same source.
In experiment [3] the target is GFP-Paxillin (UniProt P49023). In words: FRET or BRET. The source holds these as a separate data set.
Experiment [4] concerns the target FAK FAT (UniProt Q05397). In words: ITC. To be noted: cited from earlier work.
UniProt Q05397, sequence (Q05397 914-1045): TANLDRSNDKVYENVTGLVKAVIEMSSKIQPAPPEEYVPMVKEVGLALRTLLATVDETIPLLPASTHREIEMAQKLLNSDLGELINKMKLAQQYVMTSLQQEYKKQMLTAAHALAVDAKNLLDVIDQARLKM

In the case of “FAT-mCherry (from UniProt P34152 1-1052) (domain or fragment)”, the Kd in experiment [1] turned out to be 209 nM; in experiment [2] it was 367 nM; in experiment [3] it was 209 nM.
In the case of “paxillin LD peptide LD motif (from UniProt P49023)”, in experiment [4], the Kd was 10000 nM.

For orientation: Kd means the constant that tells how readily two partners part at equilibrium.
